Test results reported in PMC4102620 (Journal of molecular biology, 2014).

Molecular target: yeast E1 (Uba1) (yeast, UniProt P22515 1-1024, biotin on the C-terminal biotin ligase acceptor peptide)
Assay: fluorescent FL-UB-E1 band on non-reducing SDS-PAGE

binding result: binds
B1: fluorescently labeled wild type ubiquitin (FL-UB) (natural protein)
chain: not shown
modifications: fluorescein (iodoacetamide) on the unique cysteine of the N-terminal tag
